Assay results as given in patent publication US20120076762A1, “INDUCED PLURIPOTENT STEM CELL GENERATION USING TWO FACTORS AND P53 INACTIVATION” (THE SALK INSTITUTE FOR BIOLOGICAL STUDIES, priority 2009, published 2012).

B1: Bcl-2: mouse Bcl-2 cDNA overexpressed from HIV pBOBI lentiviral vector; BAX antagonist (protein, UniProt P10417 1-236, looked up)
Apoptosis regulator Bcl-2: MAQAGRTGYDNREIVMKYIHYKLSQRGYEWDAGDADAAPLGAAPTPGIFSFQPESNPMPAVHRDMAARTSPLRPLVATAGPALSPVPPVVHLTLRRAGDDFSRRYRRDFAEMSSQLHLTPFTARGRFATVVEELFRDGVNWGRIVAFFEFGGVMCVESVNREMSPLVDNIALWMTEYLNRHLHTWIQDNGGWDAFVELYGPSMRPLFDFSWLSLKTLLSLALVGACITLGAYLGHK
B2: c-Myc: c-Myc retrovirus (pMXs) added to Oct4/Sox2/Klf4 as fourth factor (protein, UniProt P01108 1-454, looked up)
Myc proto-oncogene protein: MDFLWALETPQTATTMPLNVNFTNRNYDLDYDSVQPYFICDEEENFYHQQQQSELQPPAPSEDIWKKFELLPTPPLSPSRRSGLCSPSYVAVATSFSPREDDDGGGGNFSTADQLEMMTELLGGDMVNQSFICDPDDETFIKNIIIQDCMWSGFSAAAKLVSEKLASYQAARKDSTSLSPARGHSVCSTSSLYLQDLTAAASECIDPSVVFPYPLNDSSSPKSCTSSDSTAFSPSSDSLLSSESSPRASPEPLVLHEETPPTTSSDSEEEQEDEEEIDVVSVEKRQTPAKRSESGSSPSRGHSKPPHSPLVLKRCHVSTHQHNYAAPPSTRKDYPAAKRAKLDSGRVLKQISNNRKCSSPRSSDTEENDKRRTHNVLERQRRNELKRSFFALRDQIPELENNEKAPKVVILKKATAYILSIQADEHKLTSEKDLLRKRREQLKHKLEQLRNSGA

How the values were obtained:
MEFs = assay: TUNEL staining of apoptotic cells in factor-infected MEFs; type: cell-based, mouse; conditions: 2-F, 3-F and 4-F experiments, five days after infection
Method: FIG. 13: Bcl-2 increased the efficiency of reprogramming. (FIG. 13a) MEFs were infected by retroviruses encoding 4 transcription factors (Oct4/Sox2/Klf4/c-Myc), 3 factors (Oct4/Sox2/Klf4), or 2 factors (Oct4/Sox2) with lentivirus encoding Bcl-2. Five days after infection, TUNEL-staining was performed. The percentage of apoptotic cells was analyzed (using at least five independent panels) and represented graphically. Error bars indicate s.d. (FIG. 13b) MEFs were infected by retroviruses encoding 3 factors (Oct4/Sox2/Klf4) in combination with mock or Bcl-2 expressing lentivirus. The fold change in the number of Nanog-positive colonies compared to mock (n=3) is shown. Error bars indicate s.d (n=3).

[1] = test system: Mouse embryonic fibroblasts (MEFs); assay: Reprogramming of mouse embryonic fibroblasts to iPS cells (Nanog-positive colonies); type: cell-based; conditions: MEFs; for Reprogramming efficiency (Nanog-positive colonies / infected cells): 3F (Oct4/Sox2/Klf4), d12-14, error = s.d.; for Direction and grade of change in reprogramming efficiency (arrows): 3F, vs control
From the text: VSV-G viruses were produced in HEK293T cells. For pMX-based and pMSCV-based retroviruses, vectors were transfected using CaPO4 or lipofectamin, following the manufacturers' directions. One day after transfection, culture medium was changed to new medium. For lentivirus, pBOBI-based^34 or pLVTHM-based^37 vectors were transfected by Lipofectamine™ 2000 (Invitrogen) according to the manufacturer's protocol. Six hours after transfection, the DNA-lipofectamine-complex was removed and the medium was replaced the next day. Two days after transfection, the supernatant containing viruses was collected and filtered through a 0.45 μm filter. Mouse iPS cells were induced as previously described^38,39. Briefly, mouse embryonic fibroblasts (passage 3 to 5) were infected (day 0) with pMX-based retroviruses together with pLVTHM-based lentivirus for shRNAs or pBOBI-based lentivirus for Bcl-2. On day 2, cells were passed onto new gelatin-coated plates. Medium was changed every 2 days. On day 12 to 14, cells were fixed for immunofluorescence study. For the Nutlin3a experiments, cells were treated starting from day 4. Reprogramming of human embryonic fibroblasts (IMR90) was done as previously described^2′^3. Briefly, IMR90 fibroblasts (passage 7 to 9) were infected (day 0) with pMSCV-based retroviruses+pLVTHM-based lentiviruses for p53 shRNA. On day 4 or 5, cells were passed onto feeder MEFs. Medium was changed every day. Around 3 weeks after infection, cells were fixed for immunofluorescence studies. Reprogramming of human primary keratinocytes was carried out essentially as described^6. Cells were co-infected with retroviral supernatants containing 3 or 4 reprogramming factors and p53-DD or GFP at a 1:2 ratio. To assess the reprogramming efficiency, cells were trypsinized 3 days after retroviral infection and 10^4 cells were plated onto 6-cm tissue culture dishes on top of irradiated human foreskin fibroblasts with hES cell medium.
The number of Nanog-positive colonies was calculated after immunostaining at d12-14. The total number of Nanog-positive colonies was divided by the number of infected cells. Error numbers indicate s.d. The term “s.d.” refers in the customary sense to standard deviation. The term “s.e.” refers in the customary sense to standard error. Student's t-tests were performed for statistical analysis. p=0.007 (p53-shRNA vs mock, n=4 in each), p=0.0006 (p53−/− vs WT, n=3 in each), p=0.009 (p21-shRNA vs mock, n=4 in each), p=0.0005 (Arf-shRNA vs mock, n=3 in each), p=0.028 (Arf/Ink4a-shRNA vs mock, n=3 in each), p=0.010 (Ctl(solvent) vs Nutlin-3(10 μM), n=3 in each), p=0.045 (3SA/3SA vs WT, n=3 in each), p=0.022 (Bcl-2 vs mock, n=4 in each), and p=0.012 (c-Myc versus mock, n=4 in each).

Molecule | Effect on apoptosis (TUNEL) (MEFs) | Fold increase in reprogramming / Nanog-positive colony formation vs control ([1]; 3-F) [fold] | Reprogramming efficiency (Nanog-positive colonies / infected cells) [1] | Direction and grade of change in reprogramming efficiency (arrows) [1]
B1 | suppressed apoptosis | 4 | 0.268 ± 0.117% vs 0.100 + 0.062% | ↑↑
B2 |  |  | 0.517 ± 0.264% vs 0.114 + 0.054% | ↑↑
